Test results published in publication doi:10.1101/2025.10.06.680735, “JMJD1B-mediated FEN1 demethylation allows timely switching of Okazaki fragment maturation core enzymes to avoid mutagenic flap ligation by PARP1-LIG3” (bioRxiv, 2025).
Blank lines part the entries; values can stand above or below the molecule they belong to.

B1: POLD1 (the catalytic and PCNA-binding subunit of Polδ), in MEFs (enzyme, mouse (endogenous in MEFs), UniProt P52431 1-1105, looked up)
chain: MDCKRRQGPGPGVPPKRARGHLWDEDEPSPSQFEANLALLEEIEAENRLQEAEEELQLPPEGTVGGQFSTADIDPRWRRPTLRALDPSTEPLIFQQLEIDHYVGSAPPLPEGPLPSRNSVPILRAFGVTDEGFSVCCHIQGFAPYFYTPAPPGFGAEHLSELQQELNAAISRDQRGGKELSGPAVLAIELCSRESMFGYHGHGPSPFLRITLALPRLMAPARRLLEQGVRVPGLGTPSFAPYEANVDFEIRFMVDADIVGCNWLELPAGKYVRRAEKKATLCQLEVDVLWSDVISHPPEGQWQRIAPLRVLSFDIECAGRKGIFPEPERDPVIQICSLGLRWGEPEPFLRLALTLRPCAPILGAKVQSYEREEDLLQAWADFILAMDPDVITGYNIQNFDLPYLISRAQALKVDRFPFLGRVTGLRSNIRDSSFQSRQVGRRDSKVISMVGRVQMDMLQVLLREHKLRSYTLNAVSFHFLGEQKEDVQHSIITDLQNGNEQTRRRLAVYCLKDAFLPLRLLERLMVLVNNVEMARVTGVPLGYLLTRGQQVKVVSQLLRQAMRQGLLMPVVKTEGSEDYTGATVIEPLKGYYDVPIATLDFSSLYPSIMMAHNLCYTTLLRPGAAQKLGLKPDEFIKTPTGDEFVKSSVRKGLLPQILENLLSARKRAKAELAQETDPLRRQVLDGRQLALKVSANSVYGFTGAQVGKLPCLEISQSVTGFGRQMIEKTKQLVESKYTVENGYDANAKVVYGDTDSVMCRFGVSSVAEAMSLGREAANWVSSHFPSPIRLEFEKVYFPYLLISKKRYAGLLFSSRSDAHDKMDCKGLEAVRRDNCPLVANLVTSSLRRILVDRDPDGAVAHAKDVISDLLCNRIDISQLVITKELTRAAADYAGKQAHVELAERMRKRDPGSAPSLGDRVPYVIIGAAKGVAAYMKSEDPLFVLEHSLPIDTQYYLEQQLAKPLLRIFEPILGEGRAESVLLRGDHTRCKTVLTSKVGGLLAFTKRRNCCIGCRSVIDHQGAVCKFCQPRESELYQKEVSHLNALEERFSRLWTQCQRCQGSLHEDVICTSRDCPIFYMRKKVRKDLEDQERLLQRFGPPGPEAW
notes: POLD1, catalytic subunit of DNA polymerase delta, mouse, endogenous in MEFs; source: endogenous, mouse embryonic fibroblasts (fixed cells)
B2: DNA ligase 1 (LIG1), in MEFs (enzyme, mouse (endogenous in MEFs), UniProt P37913 1-916, looked up)
chain: MQRSIMSFFQPTKEGKAKKPEKETPSSIREKEPPPKVALKERNQVVPESDSPVKRTGRKVAQVLSCEGEDEDEAPGTPKVQKPVSDSEQSSPPSPDTCPENSPVFNCSSPMDISPSGFPKRRTARKQLPKRTIQDTLEEQNEDKTKTAKKRKKEEETPKESLAEAEDIKQKEEKEGDQLIVPSEPTKSPESVTLTKTENIPVCKAGVKLKPQEEEQSKPPARGAKTLSSFFTPRKPAVKTEVKQEESGTLRKEETKGTLDPANYNPSKNNYHPIEDACWKHGQKVPFLAVARTFEKIEEVSARLKMVETLSNLLRSVVALSPPDLLPVLYLSLNRLGPPQQGLELGVGDGVLLKAVAQATGRQLESIRAEVAEKGDVGLVAENSRSTQRLMLPPPPLTISGVFTKFCDIARLTGSASMAKKMDIIKGLFVACRHSEARYIARSLSGRLRLGLAEQSVLAALAQAVSLTPPGQEFPTVVVDAGKGKTAEARKMWLEEQGMILKQTFCEVPDLDRIIPVLLEHGLERLPEHCKLSPGVPLKPMLAHPTRGVSEVLKRFEEVDFTCEYKYDGQRAQIHVLEGGEVKIFSRNQEDNTGKYPDIISRIPKIKHPSVTSFILDTEAVAWDREKKQIQPFQVLTTRKRKEVDASEIQVQVCLYAFDLIYLNGESLVRQPLSRRRQLLRENFVETEGEFVFTTSLDTKDTEQIAEFLEQSVKDSCEGLMVKTLDVDATYEIAKRSHNWLKLKKDYLDGVGDTLDLVVIGAYLGRGKRAGRYGGFLLAAYDEESEELQAICKLGTGFSDEELEEHHQSLQALVLPTPRPYVRIDGAVAPDHWLDPSIVWEVKCADLSLSPIYPAARGLVDKEKGISLRFPRFIRVRKDKQPEQATTSNQVASLYRKQSQIQNQQSSDLDSDVEDY
notes: DNA ligase 1, mouse, endogenous in MEFs; source: endogenous, mouse embryonic fibroblasts (fixed cells)

Columns and labels:
[1] = target: DNA ligase 1 (LIG1), in MEFs (mouse (endogenous in MEFs)) (UniProt P37913); assay: FRET or BRET; FRET microscopy in fixed FEN1 R192Q MEFs; Alexa Fluor 568 (donor) and Alexa Fluor 647 (acceptor) secondary antibodies; corrected FRET intensity at PCNA foci
[2] = target: proliferating cell nuclear antigen (PCNA), in MEFs (mouse (endogenous in MEFs)) (UniProt P17918); assay: proximity ligation; Duolink PLA on endogenous proteins in fixed FEN1 R192Q MEFs; foci per nucleus
[3] = target: DNA ligase 1 (LIG1), in MEFs (mouse (endogenous in MEFs)) (UniProt P37913); assay: as above
[4] = target: DNA ligase 1 (LIG1), in MEFs (mouse (endogenous in MEFs)) (UniProt P37913); assay: FRET or BRET; FRET microscopy in fixed WT MEFs; primary antibodies with Alexa Fluor 568 (donor) and Alexa Fluor 647 (acceptor) secondary antibodies; corrected FRET intensity at PCNA foci
[5] = target: proliferating cell nuclear antigen (PCNA), in MEFs (mouse (endogenous in MEFs)) (UniProt P17918); assay: proximity ligation; Duolink PLA on endogenous proteins in fixed WT MEFs; foci per nucleus
[6] = target: DNA ligase 1 (LIG1), in MEFs (mouse (endogenous in MEFs)) (UniProt P37913); assay: as above
[7] = target: DNA ligase 1 (LIG1), in MEFs (mouse (endogenous in MEFs)) (UniProt P37913); assay: FRET or BRET; FRET microscopy in fixed Jmjd1b-/- MEFs; Alexa Fluor 568 (donor) and Alexa Fluor 647 (acceptor) secondary antibodies; corrected FRET intensity at PCNA foci
[8] = target: proliferating cell nuclear antigen (PCNA), in MEFs (mouse (endogenous in MEFs)) (UniProt P17918); assay: proximity ligation; Duolink PLA on endogenous proteins in fixed Jmjd1b-/- MEFs; foci per nucleus
[9] = target: Flap endonuclease 1 (FEN1), in MEFs (mouse (endogenous in MEFs)) (UniProt P39749); assay: FRET or BRET; FRET microscopy in fixed WT MEFs; primary antibodies with Alexa Fluor 568 (donor) and Alexa Fluor 647 (acceptor) secondary antibodies; corrected FRET intensity at PCNA foci
[10] = target: Flap endonuclease 1 (FEN1), in MEFs (mouse (endogenous in MEFs)) (UniProt P39749); assay: proximity ligation; Duolink PLA on endogenous proteins in fixed WT MEFs; foci per nucleus
[11] = target: B2; assay: as above; settings: partners not purified
[12] = target: T1, proliferating cell nuclear antigen (PCNA), in MEFs (mouse (endogenous in MEFs), UniProt P17918 1-261); assay: as above; settings: partners not purified
T1 construct: PCNA, mouse, endogenous in MEFs; source: endogenous, mouse embryonic fibroblasts (fixed cells)
T1 sequence (P17918 whole entry): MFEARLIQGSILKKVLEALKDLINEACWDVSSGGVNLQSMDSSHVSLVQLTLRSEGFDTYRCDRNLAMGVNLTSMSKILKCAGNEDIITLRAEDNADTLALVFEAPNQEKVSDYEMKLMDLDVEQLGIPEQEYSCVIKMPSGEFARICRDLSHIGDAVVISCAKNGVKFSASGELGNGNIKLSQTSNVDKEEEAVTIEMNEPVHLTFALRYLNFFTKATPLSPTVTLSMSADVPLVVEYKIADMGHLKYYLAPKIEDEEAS

proliferating cell nuclear antigen (PCNA), in MEFs (mouse (endogenous in MEFs)), sequence (P17918 whole entry): as above
Flap endonuclease 1 (FEN1), in MEFs (mouse (endogenous in MEFs)), sequence (P39749 whole entry): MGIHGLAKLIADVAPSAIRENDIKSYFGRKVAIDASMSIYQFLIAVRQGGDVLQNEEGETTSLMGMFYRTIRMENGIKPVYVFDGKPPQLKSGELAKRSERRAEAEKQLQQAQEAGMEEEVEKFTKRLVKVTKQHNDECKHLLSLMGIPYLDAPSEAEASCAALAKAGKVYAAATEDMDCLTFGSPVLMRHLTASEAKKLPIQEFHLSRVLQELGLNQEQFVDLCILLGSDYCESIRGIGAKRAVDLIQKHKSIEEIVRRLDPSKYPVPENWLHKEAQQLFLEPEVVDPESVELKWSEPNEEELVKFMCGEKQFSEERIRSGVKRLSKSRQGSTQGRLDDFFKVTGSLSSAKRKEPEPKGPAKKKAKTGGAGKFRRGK

FEN1-LIG1 FRET level at PCNA foci, throughout S phase [1]: 2
PLA foci per nucleus [2]: 31.7 foci/nucleus
PLA foci per nucleus [3]: 9.8 foci/nucleus
Molecule: FEN1 R192Q, in FEN1 R192Q MEFs (from UniProt P39749 1-378) (enzyme)

FEN1-LIG1 FRET level at PCNA foci, throughout S phase [4]: 5.8
FEN1-LIG1 FRET signal at PCNA foci, early middle S phase [4]: 5.6
FEN1-LIG1 FRET signal at PCNA foci, late S phase [4]: 6.3
FRET signal (corrected FRET intensity at PCNA foci) [4]: 18.6
PLA foci per MEF (PLA foci per MEF) [5]: 40
PLA foci per nucleus [5]: 70.3 foci/nucleus
PLA foci per MEF (PLA foci per MEF) [6]: 20
PLA foci per nucleus [6]: 18.8 foci/nucleus
FEN1-LIG1 FRET signal at PCNA foci, early middle S phase [7]: 4.8
FEN1-LIG1 FRET signal at PCNA foci, late S phase [7]: 7.4
PLA foci per nucleus [8]: 76.2 foci/nucleus
Molecule: Flap endonuclease 1 (FEN1), in MEFs (from UniProt P39749 1-378) (enzyme)

Molecule: B1
FRET signal (corrected FRET intensity at PCNA foci) [9]: 20.1
PLA foci per MEF (PLA foci per MEF) [10]: 20
PLA foci per MEF [11]: < 5 PLA foci per MEF
PLA foci per MEF [12]: ~40 PLA foci per MEF

Molecule: B2
PLA foci per MEF [12]: ~40 PLA foci per MEF
